Test results as given in article PMC2912355 (Molecular Biology of the Cell, 2010).

Legend:
[1] = target: Strep-II-Tag IFT46 (C. reinhardtii) (UniProt A2T2X4); test: pull-down
IFT57 = target: T1, IFT57 (C. reinhardtii (endogenous in flagella), UniProt Q2XQY7 1-469); test: co-sedimentation
T1 sequence (looked up): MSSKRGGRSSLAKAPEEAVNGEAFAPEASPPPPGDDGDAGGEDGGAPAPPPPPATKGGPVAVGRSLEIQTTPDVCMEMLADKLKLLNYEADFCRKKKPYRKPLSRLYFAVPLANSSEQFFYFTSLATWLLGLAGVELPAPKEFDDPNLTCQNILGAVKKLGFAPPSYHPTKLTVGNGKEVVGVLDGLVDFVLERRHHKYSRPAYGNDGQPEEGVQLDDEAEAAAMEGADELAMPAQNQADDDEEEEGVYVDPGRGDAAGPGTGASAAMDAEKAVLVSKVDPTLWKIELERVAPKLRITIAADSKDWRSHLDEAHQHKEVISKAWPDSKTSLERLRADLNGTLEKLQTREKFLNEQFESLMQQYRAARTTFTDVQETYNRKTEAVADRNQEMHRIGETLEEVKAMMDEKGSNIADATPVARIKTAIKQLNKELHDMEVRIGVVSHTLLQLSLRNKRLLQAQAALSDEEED

IFT72 = target: T2, IFT72 (C. reinhardtii (endogenous in flagella), UniProt Q6RCE1 1-641); test: co-sedimentation
T2 sequence (looked up): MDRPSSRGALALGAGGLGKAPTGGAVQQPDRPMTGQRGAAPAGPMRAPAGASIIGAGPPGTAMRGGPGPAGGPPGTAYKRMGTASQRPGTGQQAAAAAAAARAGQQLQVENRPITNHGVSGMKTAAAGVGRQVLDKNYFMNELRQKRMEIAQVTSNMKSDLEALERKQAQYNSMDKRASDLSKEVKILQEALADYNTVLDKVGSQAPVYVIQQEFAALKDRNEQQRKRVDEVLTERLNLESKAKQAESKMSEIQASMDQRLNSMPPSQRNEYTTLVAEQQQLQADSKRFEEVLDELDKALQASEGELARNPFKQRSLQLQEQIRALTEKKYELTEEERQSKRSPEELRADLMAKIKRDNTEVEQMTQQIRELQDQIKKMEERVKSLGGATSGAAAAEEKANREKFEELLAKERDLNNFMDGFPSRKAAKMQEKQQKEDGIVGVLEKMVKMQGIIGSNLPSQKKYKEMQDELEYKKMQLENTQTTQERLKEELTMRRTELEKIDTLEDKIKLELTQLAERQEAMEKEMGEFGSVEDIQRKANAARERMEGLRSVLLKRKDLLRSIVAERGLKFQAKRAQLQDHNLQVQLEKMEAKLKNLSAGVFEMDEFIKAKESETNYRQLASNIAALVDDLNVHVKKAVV

Chain of Strep-II-Tag IFT46 (C. reinhardtii) (A2T2X4 whole entry): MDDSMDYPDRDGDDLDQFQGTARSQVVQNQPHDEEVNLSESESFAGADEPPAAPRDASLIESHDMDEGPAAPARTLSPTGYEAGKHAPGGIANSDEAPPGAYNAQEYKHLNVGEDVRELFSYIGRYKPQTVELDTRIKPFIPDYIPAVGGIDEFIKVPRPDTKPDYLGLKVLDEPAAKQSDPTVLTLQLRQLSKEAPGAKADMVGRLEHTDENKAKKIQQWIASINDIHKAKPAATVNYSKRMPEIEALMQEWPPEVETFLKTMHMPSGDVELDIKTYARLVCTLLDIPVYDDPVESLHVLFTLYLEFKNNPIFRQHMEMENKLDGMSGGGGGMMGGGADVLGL

## MBP-IFT70/CrDYF-1 (natural protein)
[1]
  stoichiometry N: 1

B1: IFT70/CrDYF-1 (natural protein, C. reinhardtii (endogenous in flagella), UniProt A8ITN7 1-647, looked up)
chain: MAFFQQPARPIAEGQYTQTIYTLIKEQKFAEAIQHLQYQLQNVPESRAALSLLGYCYYYTGQYDMASQMYEQLVTLYPSNEDYKLYYAQSLYKGGMYPEASKAVVKVEGHQKAVTTLLVACSYEQDDLTGCRRQLDKCAPEDPDTMVNTGCIMFKEGKFEAARQKFNDAVQALGYQPELLYNIALCYYKTKQFGPALKHLAEIIEKAVREHPELSVGSNTDGMEVRSVGNSQTLKETALIEAFNLKAAIEYTMKNVEAAKEALTDMPPRAEEELDPVTLHNSALINMDSDPTGGFKKLNFLLQSPPFPPETFANLLLLYCKPSHGFYDLAADVLAENPQYAGKLLSPDLYDYLQAAIGRYKSPEEAFRRFDELATRHVEQLRRLTKQIQDARIARDNDAIKRAINEYDEALEAYIPGLMAMASIYWDMELYSNVEKIFRQSAEFCSEHEVWKLNVAHTFFMQDNHYKEAIRYYEPVVKKNADNLLGVTAIVLANLCVSYIMTSQNEEAEELMRKVEKEEERSSMQDPDKPCFHLCIINLVIGTLYCAKGNYEFGVSRIIKSLEPYDKKLETDTWYYAKRCFLALIENLAKHMIVLKDSSFTEIMAFLNEAEKHGKDIRVVFNEGKHQSRTIASEARMLKKMFLKLRD
IFT57
  stoichiometry N: ~1
IFT72
  stoichiometry N: ~1
